In article PMC8257531:

Key:
[1] = co-localisation with ARL15-mClover3, SK-RC-39 cells; conditions: glycan lost; control: wild-type CNNM3-mCherry
[2] = fluorescence imaging, SK-RC-39 cells, ER/Golgi markers; conditions: glycan lost; control: wild-type CNNM3-mCherry

B1: CNNM3: N73A (protein)
parent chain: MAAAVAAAGRLGWLFAALCLGNAAGEAAPGPRVLGFCLEEDGAAGAGWVRGGAARDTPDATFLLRLFGPGFANSSWSWVAPEGAGCREEAASPAGEWRALLRLRLRAEAVRPHSALLAVRVEPGGGAAEEAAPPWALGLGAAGLLALAALARGLQLSALALAPAEVQVLRESGSEAERAAARRLEPARRWAGCALGALLLLASLAQAALAVLLYRAAGQRAVPAVLGSAGLVFLVGEVVPAAVSGRWTLALAPRALGLSRLAVLLTLPVALPVGQLLELAARPGRLRERVLELARGGGDPYSDLSKGVLRCRTVEDVLTPLEDCFMLDASTVLDFGVLASIMQSGHTRIPVYEEERSNIVDMLYLKDLAFVDPEDCTPLSTITRFYNHPLHFVFNDTKLDAVLEEFKRGKSHLAIVQKVNNEGEGDPFYEVLGLVTLEDVIEEIIRSEILDESEDYRDTVVKRKPASLMAPLKRKEEFSLFKVSDDEYKVTISPQLLLATQRFLSREVDVFSPLRISEKVLLHLLKHPSVNQEVRFDESNRLATHHYLYQRSQPVDYFILILQGRVEVEIGKEGLKFENGAFTYYGVSALTVPSSVHQSPVSSLQPIRHDLQPDPGDGTHSSAYCPDYTVRALSDLQLIKVTRLQYLNALLATRAQNLPQSPENTDLQVIPGSQTRLLGEKTTTAAGSSHSRPGVPVEGSPGRNPGV
Q: Which localisation_or_trafficking [1] does the source give for B1 here?
A: decreases

Q: And the localisation_or_trafficking [2]?
A: abolishes
